Measurements published in article PMC3013012 (The Journal of Biological Chemistry, 2010).
Read-outs that look alike come from different tables or passages of the source. Square brackets hold non-standard residues; d marks the D form. Ends that are not written are not given here. Lys(Me3) = C[N+](C)(C)CCCC[C@H](N)C(=O)O

Legend:
[1] = target: His6-tagged Cbx3 chromodomain (peptide arrays) (human, UniProt Q13185 29-81); experiment: peptide or protein array
[2] = target: T1, Cbx8 chromodomain, Cbx8-(8–61) (human, UniProt Q9HC52 8-61)
T1 sequence: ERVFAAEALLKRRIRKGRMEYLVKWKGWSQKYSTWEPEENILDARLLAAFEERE

[3] = target: T2, Cbx7 chromodomain, Cbx7-(8–62) (human, UniProt O95931 8-62)
T2 sequence: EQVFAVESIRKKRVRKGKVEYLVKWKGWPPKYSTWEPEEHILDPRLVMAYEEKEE

[4] = target: T3, His6-tagged Cbx7 chromodomain (peptide arrays) (human, UniProt O95931 8-62); experiment: peptide or protein array
T3 sequence: T2 sequence

[5] = target: T4, Cbx4 chromodomain, Cbx4-(8–65) (human, UniProt O00257 8-65); experiment: fluorescence polarisation
T4 sequence: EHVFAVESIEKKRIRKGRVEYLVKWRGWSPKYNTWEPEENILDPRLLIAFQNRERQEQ

[6] = target: Cbx5 chromodomain, Cbx5-(18–75) (human, UniProt P45973 18-75); experiment: fluorescence polarisation
Cbx5 chromodomain, Cbx5-(18–75), sequence (P45973 18-75): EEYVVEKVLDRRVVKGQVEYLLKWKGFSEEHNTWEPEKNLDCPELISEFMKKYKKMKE

[7] = target: Cbx1 chromodomain, Cbx1-(20–73) (human, UniProt P83916 20-73); experiment: fluorescence polarisation
Cbx1 chromodomain, Cbx1-(20–73), sequence (P83916 20-73): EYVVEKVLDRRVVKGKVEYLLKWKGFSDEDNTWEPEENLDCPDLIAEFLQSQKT

[8] = target: T2, Cbx7 chromodomain, Cbx7-(8–62); experiment: fluorescence polarisation
[9] = target: T1, Cbx8 chromodomain, Cbx8-(8–61); experiment: fluorescence polarisation
[10] = target: T5, Cbx2 chromodomain, Cbx2-(9–66) (human, UniProt Q14781 9-66); experiment: fluorescence polarisation
T5 sequence: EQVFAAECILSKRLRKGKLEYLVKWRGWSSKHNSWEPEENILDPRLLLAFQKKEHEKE

[11] = target: T6, Cbx6 chromodomain, Cbx6-(8–65) (human, UniProt O95503 8-65); experiment: fluorescence polarisation
T6 sequence: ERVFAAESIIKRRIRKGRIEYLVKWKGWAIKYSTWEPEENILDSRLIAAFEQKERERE

His6-tagged Cbx3 chromodomain (peptide arrays), sequence (Q13185 29-81): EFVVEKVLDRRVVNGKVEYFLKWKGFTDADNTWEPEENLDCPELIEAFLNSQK

B1: histone H3 residues 3–15, K9me3, Gln-5 to Asn array peptide (peptide)
peptide: TKNTAR[Lys(Me3)]STGGKA
modifications: also: held on a cellulose membrane through a polyethylglycol linker
binding result [1]: binds

B2: SETDB1 peptide RQVAVKme3STR (peptide)
peptide: RQVAV[Lys(Me3)]STR
Kd [2]: 98 µM
Kd [3]: 43 µM

B3: histone H3 residues 21–33 with trimethylated Lys-27, membrane-immobilized array peptide (peptide)
peptide: ATKAAR[Lys(Me3)]SAPATG
modifications: also: held on a cellulose membrane through a polyethylglycol linker
binding result [4]: binds

B4: histone H3 residues 3–15 with trimethylated Lys-9, membrane-immobilized array peptide (peptide)
peptide: TKQTAR[Lys(Me3)]STGGKA
modifications: also: held on a cellulose membrane through a polyethylglycol linker
binding result [4]: binds
binding result [1]: binds

B5: histone H3 residues 3–15, K9me3, T6V array peptide (peptide)
peptide: TKQVAR[Lys(Me3)]STGGKA
modifications: also: held on a cellulose membrane through a polyethylglycol linker
binding result [1]: binds

B6: H3K9Me3 peptide (ARTKQTARK(me3)STGGKA), fluorescein-labeled (peptide)
peptide: ARTKQTARKSTGGKA
modifications: trimethyllysine at 9; fluorescein on the N-terminus
Kd [5]: 70 µM
Kd [6]: 30 µM
Kd [7]: 5 µM

B7: histone H3 residues 3–15, K9me3, Gln-5 to His array peptide (peptide)
peptide: TKHTAR[Lys(Me3)]STGGKA
modifications: also: held on a cellulose membrane through a polyethylglycol linker
binding result [1]: binds

B8: SETDB1 peptide 1165-RGFALKme3STHG (peptide)
peptide: RGFAL[Lys(Me3)]STHG
Kd [3]: 5 µM

B9: H3K9Me3T6A peptide (ARTKQAARK(me3)STGGKA), fluorescein-labeled (peptide)
peptide: fluorescein-ARTKQAAR[Lys(Me3)]STGGKA
Kd [5]: 80 µM
Kd [8]: 140 µM
Kd [7]: 45 µM

B10: H3K27Me3 peptide (QLATKAARK(me3)SAPATG), fluorescein-labeled (peptide)
peptide: QLATKAARKSAPATG
modifications: trimethyllysine at 27; fluorescein on the N-terminus
Kd [5]: 205 µM
Kd [9]: > 500 µM
Kd [10]: 185 µM
Kd [11]: > 500 µM
Kd [8]: 110 µM

B11: histone H3 residues 3–15, K9me3, Gln-5 to Cys array peptide (peptide)
peptide: TKCTAR[Lys(Me3)]STGGKA
modifications: also: held on a cellulose membrane through a polyethylglycol linker
binding result [1]: binds

B12: H3K27Me3A24T peptide (QLATKTARK(me3)SAPATG), fluorescein-labeled (peptide)
peptide: fluorescein-QLATKTAR[Lys(Me3)]SAPATG
Kd [5]: 250 µM
Kd [9]: > 500 µM
Kd [10]: 330 µM
Kd [11]: > 500 µM
Kd [8]: 210 µM

B13: SETDB1 peptide HGIAIKme3STN (peptide)
peptide: HGIAI[Lys(Me3)]STN
Kd [2]: 37 µM
Kd [3]: 5 µM
